According to patent US11149077B2, “Targeted therapeutics based on engineered proteins for tyrosine kinases receptors, including IGF-IR” (BRISTOL-MYERS SQUIBB COMPANY, priority 2006, dated 2021):
Numbering of substitutions follows the chain as printed.

B1: 218C04 (protein)
chain: VSDVPRDLEVVAATPTSLLISWSPYLRVARYYRITYGETGGNSPVQEFTVPSSARTATISGLKPGVDYTITVYAVTPSNIIGRHYGPISINYRT
B2: 354A10 (protein)
chain: VSDVPRDLEVVAATPTSLLISWSNRLVVKRYYRITYGETGGNSPVQEFTVPHQMKTATISGLKPGVDYTITVYAVTPGGYSGRNYGPISINYRTHHHHHH
B3: 353F10 (protein)
chain: VSDVPRDLEVVAATPTSLLISWPTHYKVARYYRITYGETGGNSPVQEFTVPKHTYTATISGLKPGVDYTITVYAVTTTKGLRHYGPISINYRTHHHHHH
B4: 385A08-PEG40: 385A08 (SEQ ID NO: 203) coupled via Cys97 to a mono-functional branched 40 kDa PEG (conjugate)
chain: GVSDVPRDLEVVAATPTSLLISWSARLKVARYYRITYGETGGNSPVQEFTVPKNVYTATISGLKPGVDYTITVYAVTRFRDYQPISINYRTEIDKPCQ
modifications: branched 40 kDa PEG via Cys97
B5: 338A05 (protein)
chain: VSDVPRDLEVVAATPTSLLISWSDSLKVSRYYRITYGETGGNSPVQEFTVPKQYHTATISGLKPGVDYTITVYAVTPSNIIGRHYGPISINYRTHHHHHH
B6: 353H09 (protein)
chain: VSDVPRDLEVVAATPTSLLISWSDKLKVQRYYRITYGETGGNSPVQEFTVPKHDRTATISGLKPGVDYTITVYAVTKMRDYRPISINYRTHHHHHH
B7: 386F10 (protein)
chain: B6 chain with D24A, K25R, Q29A, H53N, D54V, R55Y, K77L, M78L, R82G
B8: 339A01 (protein)
chain: B6 chain with D24T, K25A, D54S, R55H
B9: 385A08 (protein)
chain: B6 chain with D24A, K25R, Q29A, H53N, D54V, R55Y, K77R, M78F, R82Q
B10: 386A03 (protein)
chain: B6 chain with D24A, K25R, Q29A, H53N, D54V, R55Y, K77N, M78L, R82G
B11: 387B01 (protein)
chain: B6 chain with D24A, K25R, Q29A, H53N, D54V, R55Y, K77S, M78L, R82G
B12: 338A06 (protein)
chain: VSDVPRDLEVVAATPTSLLISWSARLKVARYYRITYGETGGNSPVQEFTVPKNVYTATISGLKPGVDYTITVYAVTKMRDYRPISINYRT

Tests used:
human IGF-IR = target: T1, human IGF-IR (Homo sapiens, UniProt P08069); experiment: Surface plasmon resonance (BIAcore) binding kinetics and affinity on immobilized IGF-IR
T1 construct: The extracellular domain of human IGF-IR (aa 1-932) was cloned into a mammalian expression vector; made in house
Protocol: The binding kinetics of fibronectin-based scaffold proteins binding proteins to the target was measured using BIAcore 2000 or 3000 biosensors (Pharmacia Biosensor). A capture assay was developed utilizing an IGF-IR-Fc fusion. A similar reagent had been described by Forbes et al. (Forbes et al. 2002, European J. Biochemistry, 269, 961-968). The extracellular domain of human IGF-IR (aa 1-932) was cloned into a mammalian expression vector containing the hinge and constant regions of human IgG1. Transient transfection of the plasmid produced a fusion protein, IGF-IR-Fc which was subsequently purified by Protein A chromatography and captured on Protein A immobilized on Biasensor CM5 chips by amine coupling. The kinetic analysis involved the capture of IGF-IR-Fc on Protein A followed by injection of the fibronectin-based scaffold protein in solution and regeneration of the Protein A surface by glycine pH 2.0. Sensorgrams were obtained at each concentration and were evaluated using a program Biaevaluation, BIA Evaluation 2.0 (BIAcore), to determine the rate constants ka (kon) and kd (koff) The dissociation constant, KD was calculated from the ratio of rate constants koff/kon. Typically, a concentration series (2 uM to 0 uM) of purified fibronectin-based scaffold protein was evaluated for binding to protein A captured human IGF-IR-Fc fusion protein.

[1] = Size-exclusion chromatography (solution properties, monomericity); type: physicochemical
Protocol: Size-exclusion chromatography (SEC) was performed using a TSKgel Super SW2000 column (TOSOH Biosciences, LLC), 4.6 mm×30 cm, on an Agilent 1100 HPLC system with UV detection at A214 nm and A280 nm and with fluorescence detection (excitation=280 nm, emission=350 nm). A buffer of 100 mM sodium sulfate, 100 mM sodium phosphate, 150 mM sodium chloride, pH 6.8 at a flow rate of 100 μL/min was employed. Samples (0.1 to 1 μg each) at a concentration of approximately 100 μg/mL were injected separately. Gel filtration standards (Bio-Rad Laboratories, Hercules, Calif.) were used for molecular weight calibration.

[2] = Differential scanning calorimetry (thermal stability, Tm); type: physicochemical; details: for Tm: DSC
Protocol: Differential Scanning calorimetry (DSC) analysis of midscaled clones was performed to determine thermal stability. A 1 mg/ml solution of appropriate clone was scanned in a N-DSC II calorimeter (calorimetry Sciences Corp) by ramping the temperature from 5° C. to 95° C. at a rate of 1 degree per minute under 3 atm pressure. The data was analyzed vs. a control run of the appropriate buffer using a best fit using Orgin Software (OrginLab Corp).

RH41 sarcoma xenografts = experiment: In vivo antitumor activity in RH41 sarcoma xenografts; details: for % TGI: calculated on day 39; for LCK: gross log cell kill; for AVE weight change: Day 20 to Day 42
Protocol: *Tumor growth inhibition and probability values calculated on day 39. ^aVehicle was 80% PEG400, 20% dH2O. ^bVehicle was PBS. ^cAverage weight change for each group is the mean difference between weight at the start of treatment (Day 20) and after the end of treatment (Day 42). TVDT was calculated for a size of 500 mg Abbreviations used are as follows: po, oral route; ip, intraperitoneal route; LCK, gross log cell kill calculated as LCK=T−C/(3.32×TVDT) where T-C is the difference in time in days for the treated tumors (T) to reach a predetermined size (tumor target size) relative to the vehicle control group (C) divided by the tumor volume doubling time (TVDT) multiplied by 3.32.
Tumors were propagated in nude mice. Tumor passages occurred every four weeks for human RH41 xenografts. With regard to efficacy testing human tumor xenografts were implanted in nude mice. All tumor passages were subcutaneous (sc).
Antitumor activity was evaluated in terms of: a) cures, and for the murine tumor models, increases in lifespan reflected by the relative median survival time (MST) of treated (T) versus control (C) groups (i.e. % T/C values); and b) primary tumor growth inhibition determined by calculating the relative median times for T and C mice to grow tumors of a predetermined “target” size (1 gm for all sc tumor models described) and expressed as T-C values, in days. The definition of a cured mouse was one whose tumor was undetectable, or <35 mg, when assessed more than 10 tumor volume doubling times (TVDTs) post-treatment. The activity criterion for tumor inhibition/reduction was a statistically significant delay in primary tumor growth consistent with 1 gross log cell kill (LCK). The following formula was employed to calculate LCK: LCK=T−C/(3.32×TVDT)
Where, TVDT=median time (days) for control tumors to reach target size—median time (days) for control tumors to reach half the target size. […] The maximum tolerated dose (MTD) is defined as the dose level immediately […] which excessive toxicity (i.e. more than one death) occurred. […] Statistical evaluations of data were performed using Gehan's generalized Wilcoxon test (Gehan, Biometrika 52:203-223, 1965). Western Blot Analysis of 385A08-Fc

human insulin receptor = target: T2, human insulin receptor (Homo sapiens, UniProt P06213); experiment: BIAcore binding to immobilized human insulin receptor; details: percentage of signal for insulin binding at similar concentration
T2 construct: purchased R&D Systems (Minneapolis, Minn.)
Protocol: One liter E. coli growths of selected optimized clones were prepared and the proteins were purified.
In brief, 60 ug/mL of IR diluted in acetate 4.5 was coupled/immobilized to a level of 8300 RU and 11.9 ug/mL of VEGF-R2-Fc diluted in acetate 5.0 was immobilized to a level of 9700 RU on flow cells 2 and 3. A blank reference surface was prepared on FC1. […] Fibronectin-based scaffold proteins were diluted to 10 uM in HBS-EP (10 mM Hepes 150 mM NaCl 3 mM EDTA 0.05% Surfactant P20) and injected at 20 uL/min for 3 minutes over the flow cells at 25 C and dissociation was observed over 10 mins.

[3] = tested on: human pancreatic adenocarcinoma cell line BxPC-3; experiment: Cell mitogenesis assay: IGF-I-mediated proliferation, 3H-thymidine; type: cell-based; details: IGF-I-dependent proliferation, BxPC-3, 24 hour IGF-I exposure
Protocol: The purified, optimized IGF-IR clones were evaluated in cell-based assays in order to confirm activity.
The human pancreatic adenocarcinoma cell line BxPC-3 (ATCC, Manassas, Va.) was plated in 96 well plates at a concentration of 2500 cells per well in RPMI 1640 (Invitrogen, Carlsbad, Calif.) containing 10% fetal bovine serum (Hyclone, Logan, Utah). The following day, cells were washed in starvation medium consisting of RPMI 1640 containing 0.1% BSA (Sigma, St. Louis, Mo.). Washed cells were pre-incubated for four hours in starvation medium containing various concentrations of each IGF-IR antagonist. […] For the final four hours of incubation, cells were exposed to [^3H]-Thymidine (0.25 μCi/well; Perkin Elmer, Wellesley, Mass.). After the incubation period, cells were washed in PBS, lysed in 100 μL buffer consisting of 0.1% SDS+0.5 N NaOH, and counted on a TopCount NXT Scintillation Counter (Perkin Elmer, Wellesley, Mass.). The data were analyzed using SigmaPlot (Systat Software, Point Richmond, Calif.).

[4] = Table 4, optimized 218C04 clones
[5] = Table 7, FG loop optimized 338A06 clones

Row | Molecule | ka (human IGF-IR; [4]) | kd (human IGF-IR; [4]) | Tm ([2]; Table 3) [°C] | ka (human IGF-IR; [5]) | kd (human IGF-IR; [5]) | % IR Binding at 10 μM (human insulin receptor; Table 8) [%] | Tm ([2]; Table 9) [°C] | also measured
1 | B1 |  |  |  |  |  |  |  | Kd (human IGF-IR; clone in solution phase, immobilized IGF-IR): 1.8 nM; solution behaviour by SEC (monomer / aggregation) [1]: virtually all monomeric
2 | B2 | 1.1 1/M*s × 10^+6 | 1.8 1/s × 10^−4 | 46 |  |  |  |  | 
3 | B3 | 3.7 1/M*s × 10^+6 | 2.1 1/s × 10^−4 | 59 |  |  |  |  | 
4 | B4 |  |  |  |  |  |  |  | off-rate (kd) relative to unmodified 385A08 (human IGF-IR): slightly increased; slower on-rate (ka) relative to unmodified 385A08 (human IGF-IR): approximately 10 fold; ka (human IGF-IR; Table 10, PEGylated variants): 0.6 1/M*s × 10^+6; kd (human IGF-IR; Table 10, PEGylated variants): 2.1 1/s × 10^−4; Outcome by (% TGI) (RH41 sarcoma xenografts; 40 mg/kg, TIWx3, 20 ip): A (A % TGI value of >50% was considered active); % TGI (RH41 sarcoma xenografts; 40 mg/kg, TIWx3, 20 ip): 56%; LCK (RH41 sarcoma xenografts; 40 mg/kg, TIWx3, 20 ip): 0.4
5 | B5 | 1.3 1/M*s × 10^+6 | 3.3 1/s × 10^−4 | 68 |  |  |  |  | 
6 | B6 | 3.8 1/M*s × 10^+6 | 2.2 1/s × 10^−4 | 55 |  |  |  |  | % IR Binding at 10 μM (human insulin receptor; Table 5): 0%
7 | B7 |  |  |  | 1.9 1/M*s × 10^+6 | 2.3 1/s × 10^−4 | 3 | 58 | 
8 | B8 | 1.2 1/M*s × 10^+6 | 6.7 1/s × 10^−4 |  |  |  |  |  | 
9 | B9 |  |  |  | 5.7 1/M*s × 10^+6 | 1.9 1/s × 10^−4 | 0 | 59 | ka (human IGF-IR; Table 10, PEGylated variants): 6.9 1/M*s × 10^+6; kd (human IGF-IR; Table 10, PEGylated variants): 1.6 1/s × 10^−4; AVE weight change (RH41 sarcoma xenografts; 20 mg/kg, 2qdx20, 28 ip): 0.6 g; % TGI (RH41 sarcoma xenografts; 20 mg/kg, 2qdx20, 28 ip): 33%; LCK (RH41 sarcoma xenografts; 20 mg/kg, 2qdx20, 28 ip): 0.2; AVE weight change (RH41 sarcoma xenografts; 40 mg/kg, 2qdx20, 28 ip): 1.0 g; % TGI (RH41 sarcoma xenografts; 40 mg/kg, 2qdx20, 28 ip): 19%; LCK (RH41 sarcoma xenografts; 40 mg/kg, 2qdx20, 28 ip): 0.2
10 | B10 |  |  |  | 5.2 1/M*s × 10^+6 | 4.6 1/s × 10^−4 | 3 | 62 | 
11 | B11 |  |  |  | 6.5 1/M*s × 10^+6 | 4.4 1/s × 10^−4 | 0 | 63 | 
12 | B12 | 2.2 1/M*s × 10^+6 | 4.3 1/s × 10^−4 |  |  |  | 0 |  | IC50 [3]: 10 to 20 nM; Kd (human IGF-IR; [4]): 0.069 nM; % IR Binding at 10 μM (human insulin receptor; Table 5): 2%; unfolding temperature (Tm) ([2]; DSC (FIG. 8)): 62 °C; solution behaviour by SEC (monomer / aggregation) [1]: monomeric behavior
